The results in this text go back to article PMC9352680, “A comprehensive thermodynamic model for RNA binding by the Saccharomyces cerevisiae Pumilio protein PUF4”.

First the molecules themselves.
T1: PUF4 RNA-binding domain (Saccharomyces cerevisiae, UniProt P25339 537-888)
T1 sequence: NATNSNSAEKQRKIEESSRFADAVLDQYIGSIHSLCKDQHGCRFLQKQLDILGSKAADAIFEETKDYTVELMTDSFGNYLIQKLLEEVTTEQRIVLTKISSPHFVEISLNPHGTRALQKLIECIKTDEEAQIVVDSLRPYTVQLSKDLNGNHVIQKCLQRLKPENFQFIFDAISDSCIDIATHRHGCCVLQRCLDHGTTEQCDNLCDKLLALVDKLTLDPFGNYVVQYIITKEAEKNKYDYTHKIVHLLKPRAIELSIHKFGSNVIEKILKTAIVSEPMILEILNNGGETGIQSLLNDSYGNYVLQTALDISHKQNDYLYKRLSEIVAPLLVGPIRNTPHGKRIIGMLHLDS

B1: Ib_S2_P3E.1_K3.1_C3.1_H3.1_A3.1_[A6G]_F3.1_[T7C]_T3.1 (ssRNA)
RNA: UUUGAUUAAUAUGAUAUCGUUCUUUCUUGUAUGCAUUCUUUCUCGAUAUCAUAUUAAUCUUU
B2: Ic_S2_P3E.1_K3.1_C3.1_H3.1_A3.1_[A6C]_F3.1_[T7C]_T3.1 (ssRNA)
RNA: UUUGAUUAAUAUGAUAUCGUUCUUUCUUGUAUCCAUUCUUUCUCGAUAUCAUAUUAAUCUUU
B3: Ic_S2_P3E.1_K3.1_C3.1_H3.1_A3.1_[A6T]_F3.1_[T7C]_T3.1 (ssRNA)
RNA: UUUGAUUAAUAUGAUAUCGUUCUUUCUUGUAUUCAUUCUUUCUCGAUAUCAUAUUAAUCUUU
B4: Ic_S2_P3E.1_K3.1_C3.1_H3.1_A3.1_[A6C]_F3.1_[T7A]_T3.1 (ssRNA)
RNA: UUUGAUUAAUAUGAUAUCGUUCUUUCUUGUAUCAAUUCUUUCUCGAUAUCAUAUUAAUCUUU
B5: Ie_S2_P3E.2_K3.1_C3.2_H3.1_[+1CCTC]_A3.1_F3.1_T3.2 (ssRNA)
RNA: UUUGAUUAAUAUGAUAUCGUUCUUUCUCUUCCUCGUAUAUAUAUUCUUUCUCGAUAUCAUAUUAAUCUUU
B6: Ie_S2_P3E.2_K3.1_C3.2_H3.1_[+1CCCT]_A3.1_F3.1_T3.2 (ssRNA)
RNA: UUUGAUUAAUAUGAUAUCGUUCUUUCUCUUCCCUGUAUAUAUAUUCUUUCUCGAUAUCAUAUUAAUCUUU
B7: Ie_S2_P3E.2_K3.1_C3.2_H3.1_[+2CCTC]_A3.1_F3.1_T3.2 (ssRNA)
RNA: UUUGAUUAAUAUGAUAUCGUUCUUUCUCUUGCCUCUAUAUAUAUUCUUUCUCGAUAUCAUAUUAAUCUUU
B8: Ie_S2_P3E.2_K3.1_C3.2_H3.1_[+2CTCT]_A3.1_F3.1_T3.2 (ssRNA)
RNA: UUUGAUUAAUAUGAUAUCGUUCUUUCUCUUGCUCUUAUAUAUAUUCUUUCUCGAUAUCAUAUUAAUCUUU
B9: Ie_S2_P3E.2_K3.1_C3.2_H3.1_[+3CTCT]_A3.1_F3.1_T3.2 (ssRNA)
RNA: UUUGAUUAAUAUGAUAUCGUUCUUUCUCUUGUCUCUAUAUAUAUUCUUUCUCGAUAUCAUAUUAAUCUUU
B10: Ie_S2_P3E.2_K3.1_C3.2_H3.1_[+2CCCT]_A3.1_F3.1_T3.2 (ssRNA)
RNA: UUUGAUUAAUAUGAUAUCGUUCUUUCUCUUGCCCUUAUAUAUAUUCUUUCUCGAUAUCAUAUUAAUCUUU
B11: Ie_S2_P3E.2_K3.1_C3.2_[+-1CCTCT]_H3.1_A3.1_F3.1_T3.2 (ssRNA)
RNA: UUUGAUUAAUAUGAUAUCGUUCUUUCUCUCCUCUUGUAUAUAUAUUCUUUCUCGAUAUCAUAUUAAUCUUU
B12: Ie_S2_P3E.2_K3.1_C3.2_H3.1_[+1CCTCT]_A3.1_F3.1_T3.2 (ssRNA)
RNA: UUUGAUUAAUAUGAUAUCGUUCUUUCUCUUCCUCUGUAUAUAUAUUCUUUCUCGAUAUCAUAUUAAUCUUU
B13: Ie_S2_P3E.2_K3.1_C3.2_H3.1_[+2TTCCT]_A3.1_F3.1_T3.2 (ssRNA)
RNA: UUUGAUUAAUAUGAUAUCGUUCUUUCUCUUGUUCCUUAUAUAUAUUCUUUCUCGAUAUCAUAUUAAUCUUU
B14: Ie_S2_P3E.2_K3.1_C3.2_[+-1CCCTT]_H3.1_A3.1_F3.1_T3.2 (ssRNA)
RNA: UUUGAUUAAUAUGAUAUCGUUCUUUCUCUCCCUUUGUAUAUAUAUUCUUUCUCGAUAUCAUAUUAAUCUUU
B15: Ie_S2_P3E.2_K3.1_C3.2_H3.1_[+1TCTCT]_A3.1_F3.1_T3.2 (ssRNA)
RNA: UUUGAUUAAUAUGAUAUCGUUCUUUCUCUUUCUCUGUAUAUAUAUUCUUUCUCGAUAUCAUAUUAAUCUUU
B16: Ie_S2_P3E.2_K3.1_C3.2_H3.1_[+2CCTCT]_A3.1_F3.1_T3.2 (ssRNA)
RNA: UUUGAUUAAUAUGAUAUCGUUCUUUCUCUUGCCUCUUAUAUAUAUUCUUUCUCGAUAUCAUAUUAAUCUUU
B17: Ie_S2_P3E.2_K3.1_C3.2_H3.1_[+2TCTCT]_A3.1_F3.1_T3.2 (ssRNA)
RNA: UUUGAUUAAUAUGAUAUCGUUCUUUCUCUUGUCUCUUAUAUAUAUUCUUUCUCGAUAUCAUAUUAAUCUUU
B18: Ie_S2_P3E.2_K3.1_C3.2_H3.1_[+1CCCTT]_A3.1_F3.1_T3.2 (ssRNA)
RNA: UUUGAUUAAUAUGAUAUCGUUCUUUCUCUUCCCUUGUAUAUAUAUUCUUUCUCGAUAUCAUAUUAAUCUUU
B19: Ie_S2_P3E.2_K3.1_C3.2_H3.1_[+1TTCCT]_A3.1_F3.1_T3.2 (ssRNA)
RNA: UUUGAUUAAUAUGAUAUCGUUCUUUCUCUUUUCCUGUAUAUAUAUUCUUUCUCGAUAUCAUAUUAAUCUUU
B20: Ie_S2_P3E.2_K3.1_C3.2_[+-1TTCCT]_H3.1_A3.1_F3.1_T3.2 (ssRNA)
RNA: UUUGAUUAAUAUGAUAUCGUUCUUUCUCUUUCCUUGUAUAUAUAUUCUUUCUCGAUAUCAUAUUAAUCUUU
B21: Ie_S2_P3E.2_K3.1_C3.2_H3.1_[+2CTCTC]_A3.1_F3.1_T3.2 (ssRNA)
RNA: UUUGAUUAAUAUGAUAUCGUUCUUUCUCUUGCUCUCUAUAUAUAUUCUUUCUCGAUAUCAUAUUAAUCUUU
B22: Ie_S2_P3E.2_K3.1_C3.2_H3.1_[+1CCC]_A3.1_F3.1_T3.2 (ssRNA)
RNA: UUUGAUUAAUAUGAUAUCGUUCUUUCUCUUCCCGUAUAUAUAUUCUUUCUCGAUAUCAUAUUAAUCUUU
B23: Ie_S2_P3E.2_K3.1_C3.2_H3.1_[+3CTC]_A3.1_F3.1_T3.2 (ssRNA)
RNA: UUUGAUUAAUAUGAUAUCGUUCUUUCUCUUGUCUCAUAUAUAUUCUUUCUCGAUAUCAUAUUAAUCUUU
B24: Ie_S2_P3E.2_K3.1_C3.2_H3.1_[+3CCC]_A3.1_F3.1_T3.2 (ssRNA)
RNA: UUUGAUUAAUAUGAUAUCGUUCUUUCUCUUGUCCCAUAUAUAUUCUUUCUCGAUAUCAUAUUAAUCUUU
B25: Ie_S2_P3E.2_K3.1_C3.2_H3.1_[+1TCC]_A3.1_F3.1_T3.2 (ssRNA)
RNA: UUUGAUUAAUAUGAUAUCGUUCUUUCUCUUUCCGUAUAUAUAUUCUUUCUCGAUAUCAUAUUAAUCUUU
B26: Ie_S2_P3E.2_K3.1_C3.2_H3.1_[+2TTC]_A3.1_F3.1_T3.2 (ssRNA)
RNA: UUUGAUUAAUAUGAUAUCGUUCUUUCUCUUGUUCUAUAUAUAUUCUUUCUCGAUAUCAUAUUAAUCUUU
B27: Ie_S2_P3E.2_K3.1_C3.2_H3.1_[+2TTT]_A3.1_F3.1_T3.2 (ssRNA)
RNA: UUUGAUUAAUAUGAUAUCGUUCUUUCUCUUGUUUUAUAUAUAUUCUUUCUCGAUAUCAUAUUAAUCUUU
B28: Ie_S2_P3E.2_K3.1_C3.2_H3.1_[+2CTT]_A3.1_F3.1_T3.2 (ssRNA)
RNA: UUUGAUUAAUAUGAUAUCGUUCUUUCUCUUGCUUUAUAUAUAUUCUUUCUCGAUAUCAUAUUAAUCUUU
B29: Ie_S2_P3E.2_K3.1_C3.2_H3.1_[+2TCT]_A3.1_F3.1_T3.2 (ssRNA)
RNA: UUUGAUUAAUAUGAUAUCGUUCUUUCUCUUGUCUUAUAUAUAUUCUUUCUCGAUAUCAUAUUAAUCUUU
B30: Ie_S2_P3E.2_K3.1_C3.2_H3.1_[+2CTC]_A3.1_F3.1_T3.2 (ssRNA)
RNA: UUUGAUUAAUAUGAUAUCGUUCUUUCUCUUGCUCUAUAUAUAUUCUUUCUCGAUAUCAUAUUAAUCUUU
B31: Ie_S2_P3E.2_K3.1_C3.2_H3.1_[+2TCC]_A3.1_F3.1_T3.2 (ssRNA)
RNA: UUUGAUUAAUAUGAUAUCGUUCUUUCUCUUGUCCUAUAUAUAUUCUUUCUCGAUAUCAUAUUAAUCUUU
B32: Ie_S2_P3E.2_K3.1_C3.2_H3.1_[+1TTC]_A3.1_F3.1_T3.2 (ssRNA)
RNA: UUUGAUUAAUAUGAUAUCGUUCUUUCUCUUUUCGUAUAUAUAUUCUUUCUCGAUAUCAUAUUAAUCUUU
B33: Ie_S2_P3E.2_K3.1_C3.2_H3.1_[+1TC]_A3.1_F3.1_T3.2 (ssRNA)
RNA: UUUGAUUAAUAUGAUAUCGUUCUUUCUCUUUCGUAUAUAUAUUCUUUCUCGAUAUCAUAUUAAUCUUU
B34: Ie_S2_P3E.2_K3.1_C3.2_H3.1_[+3CC]_A3.1_F3.1_T3.2 (ssRNA)
RNA: UUUGAUUAAUAUGAUAUCGUUCUUUCUCUUGUCCAUAUAUAUUCUUUCUCGAUAUCAUAUUAAUCUUU
B35: Ie_S2_P3E.2_K3.1_C3.2_H3.1_[+3TC]_A3.1_F3.1_T3.2 (ssRNA)
RNA: UUUGAUUAAUAUGAUAUCGUUCUUUCUCUUGUUCAUAUAUAUUCUUUCUCGAUAUCAUAUUAAUCUUU
B36: Ie_S2_P3E.2_K3.1_C3.2_H3.1_[+2CC]_A3.1_F3.1_T3.2 (ssRNA)
RNA: UUUGAUUAAUAUGAUAUCGUUCUUUCUCUUGCCUAUAUAUAUUCUUUCUCGAUAUCAUAUUAAUCUUU
B37: Ie_S2_P3E.2_K3.1_C3.2_H3.1_[+2CT]_A3.1_F3.1_T3.2 (ssRNA)
RNA: UUUGAUUAAUAUGAUAUCGUUCUUUCUCUUGCUUAUAUAUAUUCUUUCUCGAUAUCAUAUUAAUCUUU
B38: Ie_S2_P3E.2_K3.1_C3.2_H3.1_[+2TT]_A3.1_F3.1_T3.2 (ssRNA)
RNA: UUUGAUUAAUAUGAUAUCGUUCUUUCUCUUGUUUAUAUAUAUUCUUUCUCGAUAUCAUAUUAAUCUUU
B39: Ie_S2_P3E.2_K3.1_C3.2_H3.1_[+3CT]_A3.1_F3.1_T3.2 (ssRNA)
RNA: UUUGAUUAAUAUGAUAUCGUUCUUUCUCUUGUCUAUAUAUAUUCUUUCUCGAUAUCAUAUUAAUCUUU
B40: Ie_S2_P3E.2_K3.1_C3.2_H3.1_[+1C]_A3.1_F3.1_T3.2 (ssRNA)
RNA: UUUGAUUAAUAUGAUAUCGUUCUUUCUCUUCGUAUAUAUAUUCUUUCUCGAUAUCAUAUUAAUCUUU
B41: Ie_S2_P3E.2_K3.1_C3.2_H3.1_[+2T]_A3.1_F3.1_T3.2 (ssRNA)
RNA: UUUGAUUAAUAUGAUAUCGUUCUUUCUCUUGUUAUAUAUAUUCUUUCUCGAUAUCAUAUUAAUCUUU

In the data set the target is T1, PUF4 RNA-binding domain. The data set is described as follows: Mg; RNA-MaP; 20 mM Na-HEPES pH 7.4, 30 mM KOAc, 0.75 mM MgCl2, 0.1% Tween-20, 5% glycerol, 0.1 mg/mL BSA, 2 mM DTT; 25 C; 0.0125-409.6 nM protein. Particulars: tags: N-His6-TEV cleaved; C-SNAP kept, Cy3B-labelled; label: tethered on chip by stalled RNA polymerase.
As a reminder, the Kd is the equilibrium constant for the complex coming apart. A low value points to a tighter complex. B1: the Kd turned out to be 198 nM. B2 yielded a Kd of 148 nM. Next, B3: 114 nM; B4: 107 nM; B5: 52.3 nM.

The molecule B6 had a Kd of 0.515 nM. Next, B7: 162 nM; B8: 62.1 nM; B9: 21.2 nM. B10 came in with a Kd of 67.5 nM.

B11 came in with a Kd of 0.967 nM. The same measure for B12: 1.11 nM; for B13: 16.3 nM; for B14: 0.572 nM.

In turn, B15 yielded a Kd of 1.44 nM. The same measure for B16: 112 nM. Next, B17: 21.5 nM; B18: 1.15 nM; B19: 1.16 nM. Molecule B20 had a Kd of 0.987 nM.

As to B21, binding was put at a Kd of 61.8 nM. Against the preceding molecule, the Kd is about 63-fold higher. B22 had an equilibrium dissociation constant (Kd) of 31.2 nM.

The molecule B23 displayed a Kd of 17.3 nM. Compared with the last molecule, the Kd is about 1.8-fold lower. The same measure for B24: 13.5 nM; for B25: 44.3 nM; for B26: 6.23 nM. Next, B27: 10.7 nM; B28: 65.6 nM.

In turn, B29 gave a Kd of 15.5 nM. Against the preceding molecule, the Kd is about 4.2-fold lower. Turning to B30, binding was characterised by a dissociation constant (Kd) of 63.2 nM. The same measure for B31: 9.73 nM. The same measure for B32: 36.5 nM; for B33: 39 nM; for B34: 34 nM. The same measure for B35: 12.9 nM; for B36: 102 nM; for B37: 93 nM.

With B38, the Kd turned out to be 14.6 nM. The same measure for B39: 28.3 nM. The same measure for B40: 34.5 nM; for B41: 8.08 nM.
